# T1: PBP1b (E. coli, UniProt P02919 1-844, fluorescent ampicillin label added after elution)
# T1 construct: PBP1b, E. coli, class A PBP, bifunctional glycosyltransferase/transpeptidase; Untagged as prey of HisFtsBLQ, HisFtsBL, HisFtsQ and HisFtsW; also called untagged PBP1b; source: E. coli C43 (DE3) or Lemo21 (DE3), coexpressed from Duet vectors, in detergent extract of membranes
# T1 sequence (looked up): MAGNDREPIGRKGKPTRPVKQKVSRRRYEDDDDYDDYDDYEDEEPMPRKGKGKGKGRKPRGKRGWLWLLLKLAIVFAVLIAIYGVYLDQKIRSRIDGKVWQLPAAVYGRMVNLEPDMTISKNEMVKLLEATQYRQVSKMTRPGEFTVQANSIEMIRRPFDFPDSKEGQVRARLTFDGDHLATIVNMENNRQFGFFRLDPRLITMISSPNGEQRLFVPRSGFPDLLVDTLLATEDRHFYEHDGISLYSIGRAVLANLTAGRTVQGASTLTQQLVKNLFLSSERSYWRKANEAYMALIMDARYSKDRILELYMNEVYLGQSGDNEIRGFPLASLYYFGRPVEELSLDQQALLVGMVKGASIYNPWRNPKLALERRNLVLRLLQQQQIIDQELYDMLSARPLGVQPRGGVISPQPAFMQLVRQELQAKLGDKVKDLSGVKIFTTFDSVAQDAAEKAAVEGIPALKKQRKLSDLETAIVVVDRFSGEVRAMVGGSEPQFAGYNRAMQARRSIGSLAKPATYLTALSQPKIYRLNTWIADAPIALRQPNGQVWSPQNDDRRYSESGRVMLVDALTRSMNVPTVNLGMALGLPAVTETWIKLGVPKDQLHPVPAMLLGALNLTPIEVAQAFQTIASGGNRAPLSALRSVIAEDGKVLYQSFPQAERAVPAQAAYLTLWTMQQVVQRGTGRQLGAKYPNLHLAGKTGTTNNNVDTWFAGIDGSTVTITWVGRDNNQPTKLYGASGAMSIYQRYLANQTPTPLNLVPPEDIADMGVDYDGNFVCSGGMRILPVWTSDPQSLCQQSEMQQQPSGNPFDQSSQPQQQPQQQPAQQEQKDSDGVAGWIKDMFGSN
# B1: FtsN (natural protein, E. coli, UniProt P29131 1-319, looked up)
# chain: MAQRDYVRRSQPAPSRRKKSTSRKKQRNLPAVSPAMVAIAAAVLVTFIGGLYFITHHKKEESETLQSQKVTGNGLPPKPEERWRYIKELESRQPGVRAPTEPSAGGEVKTPEQLTPEQRQLLEQMQADMRQQPTQLVEVPWNEQTPEQRQQTLQRQRQAQQLAEQQRLAQQSRTTEQSWQQQTRTSQAAPVQAQPRQSKPASSQQPYQDLLQTPAHTTAQSKPQQAAPVARAADAPKPTAEKKDERRWMVQCGSFRGAEQAETVRAQLAFEGFDSKITTNNGWNRVVIGPVKGKENADSTLNRLKMAGHTNCIRLAAGG
# notes: FtsN, E. coli, bitopic membrane protein; also called FtsN^WT; FtsNWT; source: E. coli C43 (DE3) or Lemo21 (DE3), coexpressed from Duet vectors, in detergent extract of membranes; also purified
# Columns and labels:
# PBP1b [1] = molecular target: T1, PBP1b
# PBP1b [2] = molecular target: T1, PBP1b; test: pull-down + SEC; PBP1b copurified with FtsN or FtsN W83L on a nickel column followed by gel filtration; SDS-PAGE, Coomassie, band amounts by Image Quant TL
Molecule,"fold decrease in stimulation of the GTase activity of PBP1b (continuous fluorescence assay), initial velocity against wild-type FtsN (PBP1b [1]) [fold]",PBP1b/FtsN ratio in the copurified complex after gel filtration (parts PBP1b of 100 (PBP1b/FtsN 20/80)) (PBP1b [2]),PBP1b/FtsN ratio in the copurified complex after gel filtration (PBP1b [2]; partners not purified)
FtsN^W83L (from UniProt P29131 1-319) (natural protein),2,20,
B1,,,~40 parts PBP1b of 100 (PBP1b/FtsN 40/60)

# From publication PMC6325244, “Regulation of the Peptidoglycan Polymerase Activity of PBP1b by Antagonist Actions of the Core Divisome Proteins FtsBLQ and FtsN” (mBio, 2019)
